Test results as given in US20110165156A1.

Assays:
Assay in all cases: cell-based or functional assay
[1] = target: CSF-1R of cynomolgous monocytes (cynomolgous)
[2] = target: human mutant CSF-1R L301S Y969F, on cells (human) (UniProt P07333)
[3] = target: human wildtype CSF-1R (wt CSF-1R), full-length, on cells (human) (UniProt P07333)

| Substance | % inhibition (of survival) = (100% - % survival) [1] [%] | % survival (cynomolgous monocytes, 5 µg/ml antibody) [1] [%] | Mutant CSF-1R IC30 (cell viability, 3D culture, CellTiterGlo) [2] [µg/mL] | Mutant CSF-1R IC50 (cell viability, 3D culture, CellTiterGlo) [2] [µg/mL] | wtCSF-1R IC30 (cell viability, 3D culture, CellTiterGlo) [3] [µg/mL] | wtCSF-1R IC50 (cell viability, 3D culture, CellTiterGlo) [3] [µg/mL] | % inhibition at 20 µg/ml, mutant CSF-1R cells [2] [%] |
| --- | --- | --- | --- | --- | --- | --- | --- |
| Anti CSF-1R SC 2-4A5 (Santa Cruz Biotechnology, US) (antibody) | 69 | 31 | 2.56 | 10 | 16.6 | 10 | – |
| goat polyclonal anti-CSF-1R antibody ab10676 (abcam) | – | – | > 20 | – | 14.2 | – | 0 |
